Results taken from the supplement of paper PMC10567573.
± gives the standard deviation.

Test: protein stability index of a GFP-peptide fusion (GPS, HEK-293T) (PSI 1-6); higher = more stable
[1] = treatment: DMSO, c terminus: a fixed tail appended
[2] = treatment: MLN4924 1 uM, 8 h, c terminus: a fixed tail appended
[3] = treatment: DMSO, c terminus: native
[4] = treatment: MLN4924 1 uM, 8 h, c terminus: native
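Also: 24-mer peptide tiles fused after GFP, lentivirally expressed, FACS-sorted into six equal bins by GFP/DsRed ratio, decoded by Illumina sequencing, PSI is the read-weighted mean bin number.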

| Sequence | protein stability index [1] | protein stability index [2] | protein stability index [3] | protein stability index [4] |
| --- | --- | --- | --- | --- |
| QLDREAQARHQLVLTAVDGGTPAR [PCDHGC5] | 4.59 ± 0.1 | 4.76 ± 0.18 | – | – |
| QLTGHQRIHSGEEPHKCPECGKRF [ZNF449] | 4.01 ± 0.28 | 4.82 ± 0.38 | – | – |
| QLVKKLNDSDHQSSTSPLMEGTPT [VPS39] | 4.87 ± 0.22 | 4.9 ± 0.09 | – | – |
| QMPQEEVELLPPAPKGKGRKPAAG [BRD3] | 4.98 ± 0.39 | 5.1 ± 0.18 | – | – |
| QNPVLSKLLMADQDSPLDLTVRKS [LCOR] | 4.14 ± 0.27 | 4.25 ± 0.21 | – | – |
| QNRVFAYLCKRVPHTVLDRQLLCL [CEP70] | 2.46 ± 0.76 | 2.46 ± 0.59 | – | – |
| QPKPLLLPAAPKTQTISSIPPQT [ATF6] | – | – | 4.73 ± 0.23 | 4.65 ± 0.34 |
| QPLSPASSSYSVSSPRSVDSYSST [ATF6] | 4.38 ± 0.22 | 4.59 ± 0.28 | – | – |
| QPPPPPPPPPMQPTVPSAATSQPT [CCDC6] | 5.11 ± 0.16 | 5.29 ± 0.062 | – | – |
| QPTTLVLPPQYVDDVISRIDRMFP [MED27] | 3.67 ± 0.24 | 3.98 ± 0.074 | – | – |
| QQDFLGLPEELRRLSGLSSVGHNW [C22orf15] | 2.96 ± 0.21 | 3.11 ± 0.14 | – | – |
| QRHPRLRPQSAQSSFPPSPGPSPD [AUP1] | 4.76 ± 0.21 | 4.97 ± 0.18 | – | – |
| QRKVDGIQKAYDELRLQSEAFKKH [CCDC89] | 4.07 ± 0.19 | 4.21 ± 0.3 | – | – |
| QRPFIRMSWEKEEGKSRHVDFQCV [BTBD10] | 2.95 ± 0.24 | 3.04 ± 0.37 | – | – |
| QRSPLGGDVLHAHLDIWKSAAWMK [SPDEF] | 2.61 ± 0.37 | 2.58 ± 0.45 | – | – |
| QSDVGVAVFENKIYVVGGYSWNNR [KLHL13] | 2.19 ± 0.34 | 2.26 ± 0.12 | – | – |
| QSFCGENIMMPMGGMMPPGPGIPP [ZNF207] | 3.15 ± 0.31 | 3.27 ± 0.26 | – | – |
| QSKILKVIRKNIVKKCLELFSELA [HSP90AB1] | 2.47 ± 0.37 | 3.39 ± 0.91 | – | – |
| QSLRCDLIRYICGVVHPSNEVLSS [INTS3] | 2.33 ± 0.34 | 2.19 ± 0.45 | – | – |
| QSTDGARGKRGYSRGLHAWEISWP [SPSB2] | 2.9 ± 0.14 | 2.75 ± 0.39 | – | – |
| QTLDVNRDGGLCVNDLAVGLRRLG [SLC25A25] | 2.98 ± 0.23 | 3.18 ± 0.3 | – | – |
| QVKASSPVPATPILQLEECCTHNN [TRIM9] | 4.9 ± 0.21 | 4.923 ± 0.028 | – | – |

| Sequence | protein stability index [1] | protein stability index [2] | protein stability index [3] | protein stability index [4] |
| --- | --- | --- | --- | --- |
| QVTCLRTQVLEDSEDSFCRRHPGL [TRAF3IP2] | 4.05 ± 0.2 | 4.08 ± 0.35 | – | – |
| QYIAQFTSQFLSLQCLQALYVDSL [PRAME] | 3.237 ± 0.011 | 3.47 ± 0.23 | – | – |
| RAHAEIRKMSLLKFLAKVNGSDPR [MAGEA10] | 2.37 ± 0.26 | 2.57 ± 0.58 | – | – |
| RAQLPKYQRNLPRPGQAPIGNPPV [ZNF207] | 3.75 ± 0.26 | 3.79 ± 0.14 | – | – |
| RATRAGAAEEPGVRGLLASLFAFK [C2CD2L] | 3.1 ± 0.75 | 3.01 ± 0.57 | – | – |
| RCCGAASYQDWQQNLYFNCSSPGV [TSPAN10] | 2.37 ± 0.42 | 2.33 ± 0.66 | – | – |
| RDDLEALGHMFMYFLRGSLPWQGL [CSNK1G3] | 3.19 ± 0.37 | 2.93 ± 0.15 | – | – |
| REPAGRWKEGRPRVEESGSKKEGK [PBXIP1] | 5.34 ± 0.21 | 5.36 ± 0.21 | – | – |
| RFVQDLVRALEQEKLQGVECGLR [DAPK3] | – | – | 2.92 ± 1.3 | 2.14 ± 0.067 |
| RKAALEQDLAFWYGPRWQEVIPYT [HMOX1] | 2.33 ± 0.23 | 2.54 ± 0.39 | – | – |
| RKPCKLMLQVVKILVVTVQLILFG [MCOLN1] | 2.44 ± 0.33 | 2.47 ± 0.32 | – | – |
| RLKFPIDYPYSPPAFRFLTKMWHP [CDC34] | 2.49 ± 0.48 | 2.09 ± 0.15 | – | – |
| RLQHICELFIITQLQSMPSRELAS [RHOBTB3] | 3.19 ± 0.5 | 3.33 ± 0.63 | – | – |
| RLYVDKSLNLSTEFISSTKRPYAK [SERPINB5] | 3.41 ± 0.76 | 3.46 ± 0.5 | – | – |
| RMPLLTPRYITDVIDAEPFIRCSL [KLHL12] | 2.27 ± 0.28 | 1.84 ± 0.52 | – | – |
| RMTSAAHYYPKLMSIMGNVLRFLP [GFOD1] | 2.32 ± 0.39 | 2.15 ± 0.36 | – | – |
| RNRLAATKCRKRKLERIARLEDKV [JUNB] | 3.78 ± 0.17 | 3.86 ± 0.12 | – | – |
| RNVLELNDVRQSANYTCVAMSTLG [PTPRD] | 2.85 ± 0.28 | 2.74 ± 0.17 | – | – |
| RNWALKESFIKAIGVGLGFELQRL [AASDHPPT] | 3 ± 0.54 | 2.63 ± 0.52 | – | – |
| RPVILDPADPTGNLGGGDPKGWRQ [OAS1] | 4.28 ± 0.18 | 4.47 ± 0.18 | – | – |
| RPWADTCSSSGKDGNLCLHVPNPP [HESX1] | 3.48 ± 0.14 | 3.81 ± 0.19 | – | – |
| RQVWLLFEYPESSGPARVIAIVSV [KCNA1] | 3.25 ± 0.45 | 2.64 ± 0.48 | – | – |

| Sequence | protein stability index [1] | protein stability index [2] | protein stability index [3] | protein stability index [4] |
| --- | --- | --- | --- | --- |
| RRGRMALCGQAAGAASLPSELIVH [FBXO33] | 2.96 ± 0.25 | 2.78 ± 0.32 | – | – |
| RRLEAFEHPNVVRLMDVCATSRTD [CDK4] | 3.9 ± 0.13 | 3.91 ± 0.27 | – | – |
| RRVGILGEELADVGGVLRGLNHSL [SCARA5] | 2.9 ± 0.095 | 2.94 ± 0.3 | – | – |
| RSHHLEMVIQLLAIMCVSCICWSP [PTGFR] | 3.18 ± 0.26 | 3.14 ± 0.69 | – | – |
| RSLEELTRLAFELFAEEQAEGPNR [LPCAT4] | 3.32 ± 0.52 | 3.53 ± 0.18 | – | – |
| RSLSERTVDKCFGRKKYDIDPRNG [SPATS1] | 4.39 ± 0.24 | 4.73 ± 0.33 | – | – |
| RSREARSRLLLLEQELKTVTYSLL [SMAD6] | 2.61 ± 0.36 | 2.5 ± 0.33 | – | – |
| RTDEELQPPTTTVARSGTPAVENK [PLK2] | 5.42 ± 0.6 | 5.45 ± 0.27 | – | – |
| RTFLETSTDTAVTNEWEKRLSTSP [EPB41L3] | 4.17 ± 0.33 | 3.98 ± 0.2 | – | – |
| RTKSRTWAGEKSKREMYSRLKKL [CDC25A] | – | – | 4.36 ± 0.32 | 4.51 ± 0.38 |
| RTYGEPESAGPSRAVRQSVTSFPD [EMD] | 4.92 ± 0.24 | 4.94 ± 0.14 | – | – |
| RVLNSAKEKSSTVPIPTVNQYLYF [SOAT1] | 2.29 ± 0.14 | 2.47 ± 0.16 | – | – |
| RVMMASASDYFKAMFTGGMKEQDL [KLHL13] | 2.91 ± 0.58 | 2.82 ± 0.091 | – | – |
| RVRPLARVTSLANLISPVRNGAVR [NET1] | 3.12 ± 0.17 | 3.2 ± 0.41 | – | – |
| RYEQGRFWPHLKASNWSTTGFGQG [HDAC6] | 2.54 ± 0.28 | 2.6 ± 0.12 | – | – |
| RYESLTDPSKLDSGKELKIDIIPN [HSP90AB1] | 4.33 ± 0.2 | 4.31 ± 0.24 | – | – |
| SAPDTMKRYSMYLTPKGGVRTSYQ [TRIM29] | 2.94 ± 0.21 | 3.05 ± 0.16 | – | – |
| SAPEQELLVQDATPVSNSLLPEKA [GFOD1] | 5.29 ± 0.28 | 5.4 ± 0.26 | – | – |
| SAPPTSRTSSGNVWVTHEEMETLE [PPFIA4] | 5.12 ± 0.29 | 4.88 ± 0.39 | – | – |
| SAQLQELVCHVMMGNLVMFRKDSV [INTS3] | 3.07 ± 0.38 | 2.83 ± 0.37 | – | – |
| SARYLSQCQEAEQARAELTAQHQR [FBF1] | 4.76 ± 0.28 | 4.57 ± 0.15 | – | – |
| SCFLINTADRIIRVYDGREILTCG [RBBP5] | 1.91 ± 0.098 | 1.91 ± 0.27 | – | – |

| Sequence | protein stability index [1] | protein stability index [2] | protein stability index [3] | protein stability index [4] |
| --- | --- | --- | --- | --- |
| SCPEGDASECPQATNAKDSGCSSP [PPEF2] | 5.63 ± 0.34 | 5.7 ± 0.27 | – | – |
| SCSQSHCCSRYLCMGAMSLFLPCL [SPRY1] | 2.52 ± 0.44 | 2.5 ± 0.4 | – | – |
| SDASSHANAAKHTQDSARVNPQDG [EHMT1] | 5.27 ± 0.22 | 5.36 ± 0.21 | – | – |
| SEADASHCIQQILEAVLHCHQMGV [CAMK2B] | 2.48 ± 0.14 | 2.67 ± 0.59 | – | – |
| SEAEEALYLIAKRNRKLKCTFSLT [SLC22A15] | 2.52 ± 0.15 | 2.56 ± 0.12 | – | – |
| SEASIASNLQAMSTQMFQTKRCFR [SMG5] | 3.94 ± 0.13 | 4.08 ± 0.15 | – | – |
| SEIGTSDQIVPEYQEDSDISSFFC [TRIB1] | 4.39 ± 0.47 | 4.55 ± 0.36 | – | – |
| SEMWDIFLVRLLMAMAVMLYYSNF [MFSD9] | 3.25 ± 0.38 | 3.36 ± 0.33 | – | – |
| SEPYKLLPGAVATIVKPLSAIPQP [HNF4A] | 3.44 ± 0.3 | 3.59 ± 0.16 | – | – |
| SERDKRPEGYNLKDEEGRLRDPAT [PPP2R2B] | 5.6 ± 0.29 | 5.4 ± 0.18 | – | – |
| SERPLDFLDLERPPTTPQNEEIRA [MFF] | 5.29 ± 0.39 | 5.55 ± 0.15 | – | – |
| SFLNVTKSSLIWSYPAGSLTFPVR [TRIM43] | 1.89 ± 0.045 | 2.17 ± 0.16 | – | – |
| SGLQGLPECTRCGHGIVGTIVKAR [PDLIM4] | 2.51 ± 0.32 | 2.64 ± 0.34 | – | – |
| SGRHPSHSTTPSGPGDEVARGIAG [ARFIP2] | 4.81 ± 0.13 | 4.62 ± 0.22 | – | – |
| SGSLITAGRIDREELCAQSARCVV [PCDHGA10] | 3.22 ± 0.4 | 3.2 ± 0.29 | – | – |
| SGTVAAVLTLPFDVVKTQRQVALG [SLC25A39] | 2.15 ± 0.32 | 2.27 ± 0.3 | – | – |
| SHAWEVALGGLQSWRVGVVRVRQD [TRIM35] | 2.47 ± 0.26 | 2.35 ± 0.36 | – | – |
| SHYFKIIEDLRAQIFANTVDNARI [KRT18] | 2.4 ± 0.44 | 2.07 ± 0.24 | – | – |
| SIDLGTAHSAAVTASGDCYTFGSN [NEK8] | 3.79 ± 0.31 | 4.06 ± 0.35 | – | – |
| SKESSKEKKLTVRQDLEDRYAEHV [C22orf31] | 5.09 ± 0.27 | 5.16 ± 0.1 | – | – |
| SLDGKAIKVEQATKPSFESGRRGP [RBMX] | 4.84 ± 0.4 | 4.94 ± 0.35 | – | – |
| SLEKLLASEPLPWDLRFRIIHETA [RIPK4] | 2.18 ± 0.33 | 2.31 ± 0.33 | – | – |
